This passage reports Kd and koff results from article PMC10345191 (NPJ Vaccines, 2023).

In assay [1] the target is T1, ConM SOSIP soluble gp140 Env trimer, unmodified (GMP) (HIV-1 (group M consensus)).
T1 construct: copies: 3 + 3
As to the kind of experiment: BLI. The settings on record: both partners purified.

Assay [2] has as its target T2, EDC cross-linked ConM SOSIP soluble gp140 Env trimer (GMP) (HIV-1 (group M consensus)).
T2 construct: copies: 3 + 3
As to the kind of experiment: BLI. Conditions: both partners purified.

B1: PGT122 Fab (Fab, V domains shown)
VH: QVHLQESGPGLVKPSETLSLTCNVSGTLVRDNYWSWIRQPLGKQPEWIGYVHDSGDTNYNPSLKSRVHLSLDKSKNLVSLRLTGVTAADSAIYYCATTKHGRRIYGVVAFKEWFTYFYMDVWGKGTSVTVSS
VL: APTFVSVAPGQTARITCGEESLGSRSVIWYQQRPGQAPSLIIYNNNDRPSGIPDRFSGSPGSTFGTTATLTITSVEAGDEADYYCHIWDSRRPTNWVFGEGTTLIVL
notes: source: Freestyle 293F cells, serum-free, purified (HiTrap KappaSelect, Mono S)
As for B1, in assay [1], the Kd is below 1 pM and the koff is below 1e-07 s⁻¹. Besides, in assay [2], the Kd was below 1 pM and the koff was below 1e-07 s⁻¹.
